Literature values as cited in patent US20190350851A1, “DOSE RESPONSE, SURFACE MODIFIED NANOTUBES” (MOLECULAR REBAR DESIGN, LLC, priority 2018, published 2019).

B1: Myoglobin (protein, UniProt P02144 2-154, looked up)
Myoglobin: GLSDGEWQLVLNVWGKVEADIPGHGQEVLIRLFKGHPETLEKFDKFKHLKSEDEMKASEDLKKHGATVLTALGGILKKKGHHEAEIKPLAQSHATKHKIPVKYLEFISECIIQVLQSKHPGDFGADAQGAMNKALELFRKDMASNYKELGFQG

details: in water

Molecule | Hydrodynamic Radius [nm]
NC(=O)CC[C@@H]1NC(=O)[C@H](Cc2ccccc2)NC(=O)[C@H](Cc2ccc(O)cc2)NC(=O)CCSSC[C@@H](C(=O)N2CCC[C@H]2C(=O)N[C@H](CCCN=C(N)N)C(=O)NCC(N)=O)NC(=O)[C@H](CC(N)=O)NC1=O [Desmopressin, reference compound] | 0.88
O=C(O)c1cccnc1 [Niacin, reference compound] | 0.33
CN1CCCC1c1cccnc1 (centres unmarked) [Nicotine, reference compound] | 0.38
Bovine serum albumin | 7.0
Cytochrome C | 2.64
Insulin | 2.1
B1 | 3.34

same assay, conditions: in water; listed as bovine serum albumin

Molecule | Hydrodynamic Radius [nm]
Bovine serum albumin | 7
